This passage reports Kd results from the FLAb antibody collection (doi:10.1101/2023.12.08.570889).

B1: unnamed (protein)
chain 1: EVQLVQSGAEVKKPGESLRISCKGSGYSFSTYWISWVRQMPGKGLEWMGKIYPGDSYTNYSPSFQGQVTISADKSISTAYLQWSSLKASDTAMYYCTRGTGLFDYWGQGTLVTVSS
chain 2: SYELTQPPSVSVSPGQTASITCSGDNIGDQYAHWYQQKPGQSPVLVIYQDKNRPSGIPERFSGSNSGNTATLTISGTQAMDEADYYCATYTGFGSLAVFGGGTKLTVL
B2: unnamed (protein)
chain 1: B1 chain 1 with T97S, T100Y, L102I
chain 2: B1 chain 2
B3: unnamed (protein)
chain 1: B1 chain 1 with T31S, T97A
chain 2: B1 chain 2
B4: unnamed (protein)
chain 1: B1 chain 1 with T97A, T100H, L102V
chain 2: B1 chain 2
B5: unnamed (protein)
chain 1: B1 chain 1 with T31S, T97A, T100Y
chain 2: B1 chain 2
B6: unnamed (protein)
chain 1: B1 chain 1 with S28T, T31S, T100Y
chain 2: B1 chain 2
B7: unnamed (protein)
chain 1: B1 chain 1 with S28T, T31S, T97A, T100Y
chain 2: B1 chain 2
B8: unnamed (protein)
chain 1: B1 chain 1 with S28T, T31S, T100Y, L102I
chain 2: B1 chain 2
B9: unnamed (protein)
chain 1: B1 chain 1 with S28T, T31D, T97A, T100Y
chain 2: B1 chain 2
B10: unnamed (protein)
chain 1: B1 chain 1 with S28T, T31N, T97A, T100Y
chain 2: B1 chain 2
B11: unnamed (protein)
chain 1: B1 chain 1 with S28T, T31D, T97A, T100Y, L102I
chain 2: B1 chain 2
B12: unnamed (protein)
chain 1: B1 chain 1 with T31N, T97A, T100Y
chain 2: B1 chain 2
B13: unnamed (protein)
chain 1: B1 chain 1 with L102I
chain 2: B1 chain 2
B14: unnamed (protein)
chain 1: B1 chain 1 with T31S, T97A, T100Y, L102V
chain 2: B1 chain 2
B15: unnamed (protein)
chain 1: B1 chain 1 with S28T, T31N, T97A, T100Y, L102I
chain 2: B1 chain 2
B16: unnamed (protein)
chain 1: B1 chain 1 with T97A, T100W
chain 2: B1 chain 2
B17: unnamed (protein)
chain 1: B1 chain 1 with T97A, T100W, L102I
chain 2: B1 chain 2
B18: unnamed (protein)
chain 1: B1 chain 1 with S28T, T31S, D55N, T97A, T100D, L102V
chain 2: B1 chain 2
B19: unnamed (protein)
chain 1: B1 chain 1 with T97A, T100I, L102V
chain 2: B1 chain 2
B20: unnamed (protein)
chain 1: B1 chain 1 with S28T, T31S, T97A, T100Y, L102I, F103L
chain 2: B1 chain 2

Changes are numbered by the printed parent chain.

This experiment concerns the target TNFRSF9, Q07011. Nature of the experiment: Kd (SPR).
The Kd is the free concentration of one partner at which half of the binding sites on the other are occupied at equilibrium, for simple one-to-one binding. A lower Kd goes with a tighter complex. On to B1, for which the Kd is 142 nM.

B2: the Kd is 39.7 nM.

On to B3, for which the Kd amounted to 150 nM.

B4 came in with a Kd of 315 nM.

For the molecule B5, the Kd is 51.1 nM.

B6 showed a Kd of 109 nM.

Take B7: the Kd was determined as 86.1 nM.

As for B8, the dissociation constant Kd stood at 95.4 nM.

As to B9, the equilibrium dissociation constant (Kd) is 84.1 nM.

As to B10, the Kd is 117 nM.

On to B11, for which the dissociation constant (Kd) came to 120 nM.

In the case of B12, the Kd was found to be 145 nM.

With B13, the Kd is 92 nM.

Turning to B14, the Kd is 228 nM.

B15 showed a Kd of 86.4 nM.

In turn, B16 gave a Kd of 60.3 nM.

On to B17, for which the equilibrium dissociation constant (Kd) came to 45 nM.

As for B18, the Kd came to 32.9 nM.

Consider B19, for which the Kd was 33.4 nM.

With B20, the Kd turned out to be 59.4 nM.
